# Data reported in publication PMC2048530.
# Biological target: DC-SIGN-Fc (human) (UniProt Q9NNX6)
# UniProt Q9NNX6, sequence (Q9NNX6 59-404): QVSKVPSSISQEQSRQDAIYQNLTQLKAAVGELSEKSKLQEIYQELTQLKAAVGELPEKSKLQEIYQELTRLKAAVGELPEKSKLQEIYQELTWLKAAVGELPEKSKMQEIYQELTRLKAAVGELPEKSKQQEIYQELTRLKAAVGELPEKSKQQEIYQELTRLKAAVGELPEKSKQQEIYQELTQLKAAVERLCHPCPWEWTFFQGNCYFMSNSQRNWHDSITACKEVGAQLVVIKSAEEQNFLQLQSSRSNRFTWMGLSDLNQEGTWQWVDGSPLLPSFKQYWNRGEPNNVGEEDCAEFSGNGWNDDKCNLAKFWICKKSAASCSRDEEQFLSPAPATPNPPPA
substance,measurement,value
HIV-1 JR-FL gp120 (recombinant monomeric gp120; mock-treated form M-gp120) (natural protein),IL-10 induction in iMDDCs by JR-FL gp120 (3 μg/ml) at 24 h after pre-incubation of the cells with anti-DC-SIGN mAb AZN-D1 (40 μg/ml); DC-SIGN here is the whole receptor on MDDCs,50 % reduction
